According to PMC11457862, “Engineered cytokine/antibody fusion proteins improve IL-2 delivery to pro-inflammatory cells and promote antitumor activity” (JCI Insight, 2024):
One block for each binder: values may come before it.

Experiments:
[1] = molecular target: T1, biotinylated mouse IL-2Rα (Mus musculus, UniProt P01590, biotin); assay: BLI; same set-up as a7; equilibrium titration, first-order fit (Supplemental Figure 6G,H, Supplemental Table 1); settings: both partners purified
T1 construct: mouse IL-2 receptor alpha; the supplementary methods describe only the human constructs; probably an ectodomain with BAP like them; also called mIL-2Rα
T1 sequence (P01590 22-268): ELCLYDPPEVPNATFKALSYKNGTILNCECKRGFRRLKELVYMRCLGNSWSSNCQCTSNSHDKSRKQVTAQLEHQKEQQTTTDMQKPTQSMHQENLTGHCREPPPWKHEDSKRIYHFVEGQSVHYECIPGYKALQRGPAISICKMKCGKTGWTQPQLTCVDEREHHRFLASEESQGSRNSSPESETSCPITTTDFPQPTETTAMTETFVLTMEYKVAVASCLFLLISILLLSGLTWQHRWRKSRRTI

[2] = molecular target: T2, biotinylated mouse IL-2Rβ (Mus musculus, UniProt P16297, biotin); assay: as above; settings: both partners purified
T2 construct: mouse IL-2 receptor beta; the supplementary methods describe only the human constructs; probably an ectodomain with BAP like them; also called mIL-2Rβ
T2 sequence (P16297 27-539): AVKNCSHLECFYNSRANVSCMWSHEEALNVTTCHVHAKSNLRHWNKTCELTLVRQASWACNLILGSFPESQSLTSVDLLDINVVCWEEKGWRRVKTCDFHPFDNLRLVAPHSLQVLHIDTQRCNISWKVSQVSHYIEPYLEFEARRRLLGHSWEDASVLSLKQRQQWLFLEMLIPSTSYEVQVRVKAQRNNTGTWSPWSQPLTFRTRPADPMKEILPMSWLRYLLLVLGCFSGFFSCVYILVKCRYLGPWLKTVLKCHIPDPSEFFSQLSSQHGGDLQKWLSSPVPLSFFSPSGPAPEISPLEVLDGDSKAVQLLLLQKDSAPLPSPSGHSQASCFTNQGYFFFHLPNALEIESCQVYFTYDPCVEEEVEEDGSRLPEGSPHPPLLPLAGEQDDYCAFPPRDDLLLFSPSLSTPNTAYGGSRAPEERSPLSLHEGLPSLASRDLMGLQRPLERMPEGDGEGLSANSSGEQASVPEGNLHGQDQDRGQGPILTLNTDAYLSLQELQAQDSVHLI

[3] = molecular target: T3, biotinylated human IL-2 (amino acids 1-133, C-terminal biotin acceptor peptide) (human, UniProt P60568, biotin on the biotin acceptor peptide (BirA ligase)); assay: BLI; same set-up as a3; equilibrium titration, first-order fit (Supplemental Figure 4A-C, Supplemental Table 4); settings: both partners purified
T3 construct: also called immobilized IL-2; hIL-2; source: HEK 293F, purified (Ni-NTA, biotinylated with BirA, SEC)

[4] = molecular target: T3, biotinylated human IL-2 (amino acids …); assay: BLI; same set-up as a1; equilibrium titration of the response at the end of the association phase, first-order fit (Figures 2 and 3, Supplemental Table 1); settings: both partners purified
[5] = molecular target: T3, biotinylated human IL-2 (amino acids …); assay: BLI; biotinylated human IL-2 or IL-2Rβ on streptavidin tips; engineered 602 IC variants and controls in PBSA; kinetic fit, 1:1 binding model (Supplemental Figure 5, Supplemental Table 4); settings: both partners purified
[6] = molecular target: T3, biotinylated human IL-2 (amino acids …); assay: BLI; biotinylated human IL-2, IL-2Rα or IL-2Rβ on streptavidin tips (Octet Red96); soluble analyte in PBSA (PBS pH 7.2, 0.1% BSA), 300 s association; kinetic fit, 1:1 binding model; IL-2/602 Cx 2:1 by the legend (Supplemental Figure 2, Supplemental Table 1); settings: both partners purified
[7] = molecular target: T3, biotinylated human IL-2 (amino acids …); assay: flow cytometry on cells; yeast displaying scFv incubated with 5 nM biotinylated IL-2 and titrated IL-2Rα in PBE buffer, 2 h, room temperature; detected with Alexa Fluor 647 streptavidin; settings: one partner purified
[8] = molecular target: T3, biotinylated human IL-2 (amino acids …); assay: BLI; same set-up as a5; equilibrium titration, first-order fit (Supplemental Figure 6C,D, Supplemental Table 5); settings: both partners purified
[9] = molecular target: T3, biotinylated human IL-2 (amino acids …); assay: BLI; biotinylated human IL-2 on streptavidin tips; scFvs, IL-2/antibody complexes (2:1) and ICs in PBSA; kinetic fit, 1:1 binding model (Supplemental Figure 6A,B, Supplemental Table 5); settings: both partners purified
human IL-2 = molecular target: T4, human IL-2 (human, UniProt P60568); assay: BLI; scFvs with IL-2, kinetics; who was immobilised is not told in what was shown; settings: both partners purified
T4 construct: Used soluble, immobilised on BLI tips and in the crystals; also called hIL-2; interleukin-2

B1: anti-human IL-2 antibody 602 (MAB602), recombinant mouse IgG2a kappa (antibody, V domains shown)
VH: EVQLQESGPGLVAPSQSLSITCTVSGFSLTNYDISWIRQPPGKGLEWLGVIWTGGGTNYNSGFMSRLSITKDNSKSQVFLKMNSLQTDDTAIYYCVRQGRTPYWGQGTLVTVSA
VL: DIQVTQSPSSLSVSLGDRVTITCKASKDIYNRLAWYQQKPGNAPRLLISGATSLETGVPSRFSGSGSGKDYTLTITSLQTEDVATYYCQQFWGTPYTFGGGTKLEIK
notes: mouse IgG2a heavy chain constant region; mouse kappa light chain constant region; mouse IgG2a kappa; source: HEK 293F, transient co-transfection, purified (Protein G, SEC); copies: 2 + 2
- Kd [1]: > 10000 nM
- Kd [2]: > 10000 nM
- Kd [3]: 3.7 ± 7.4 nM
- Kd [4]: 6.3 ± 5.2 nM
- Kd [5]: 0.044 ± 0.05 nM
- koff [5]: 2.8e-05 s⁻¹
- kon [5]: 642000 M⁻¹ s⁻¹
- Kd [6]: 0.13 ± 0.02 nM
- koff [6]: 5.1e-05 s⁻¹
- kon [6]: 382000 M⁻¹ s⁻¹

B6: F10 scFv (VH-[G4S]3-VL), soluble (scFv, V domains shown)
VH: EVQLQESGPGLVAPSQSLSITCTVSGFSLTNYDISWIRQPPGKGLEWLGVIWTGGGTNYNSGFMSRLSITKDNSKSQVFLKMNSLQTDDTAIYYCVRQGRSPYWGQGTLVTVSA
VL: DIQVTQSPSSLSVSLGDRVTITCKASKDIYNRLAWYQQKPGNAPRLLISGATSLETGVPSRFSGSGSGKDYTLTITSLQTEDVATYYCQQSWDTPYTFGGGTKLEIK
notes: the scFv chain of PDB 8SOW; source: HEK 293F, purified (Ni-NTA, SEC)
- Kd [8]: 6.12 ± 5.66 nM
- Kd [9]: 0.34 ± 0.01 nM
- koff [9]: 0.000188 s⁻¹
- kon [9]: 563000 M⁻¹ s⁻¹

B7: F10 scFv (scFv, V domains shown)
VH: EVQLQESGPGLVAPSQSLSITCTVSGFSLTNYDISWIRQPPGKGLEWLGVIWTGGGTNYNSGFMSRLSITKDNSKSQVFLKMNSLQTDDTAIYYCVRQGRSPYWGQGTLVTVSA
VL: DIQVTQSPSSLSVSLGDRVTITCKASKDIYNRLAWYQQKPGNAPRLLISGATSLETGVPSRFSGSGSGKDYTLTITSLQTEDVATYYCQQSWDTPYTFGGGTKLEIK
notes: as the scFv of m13 with the stated changes; numbers count on the scFv (T99S in CDR3H, F91S and G93D in CDR3L, Kabat); soluble scFv used for BLI and for the crystal structure; also called variant F10
- fold reduction in dissociation rate against 602 scFv (human IL-2): 3.6 fold

B8: 602 scFv (VH-[G4S]3-VL), soluble (scFv, V domains shown)
VH: EVQLQESGPGLVAPSQSLSITCTVSGFSLTNYDISWIRQPPGKGLEWLGVIWTGGGTNYNSGFMSRLSITKDNSKSQVFLKMNSLQTDDTAIYYCVRQGRTPYWGQGTLVTVSA
VL: DIQVTQSPSSLSVSLGDRVTITCKASKDIYNRLAWYQQKPGNAPRLLISGATSLETGVPSRFSGSGSGKDYTLTITSLQTEDVATYYCQQFWGTPYTFGGGTKLEIK
notes: the scFv chain of PDB 8SOZ; source: HEK 293F, purified (Ni-NTA, SEC)
- Kd [8]: 9 ± 8.59 nM
- Kd [9]: 1.94 ± 0.02 nM
- koff [9]: 0.00067 s⁻¹
- kon [9]: 361000 M⁻¹ s⁻¹

Further lines, results first:

- binding result [7]: binds
B2: yeast-displayed 602 scFv variant E10 (scFv, V domains shown)
VH: EVQLQESGPGLVAPSQSLSITCTVSGFSLTNYDISWIRQPPGKGLEWLGVIWTGGGTNYNSGFMSRLSITKDNSKSQVFLKMNSLQTDDTAIYYCVRQGRAPYWGQGTLVTVSA
VL: DIQVTQSPSSLSVSLGDRVTITCKASKDIYNRLAWYQQKPGNAPRLLISGATSLETGVPSRFSGSGSGKDYTLTITSLQTEDVATYYCQQLWGTPYTFGGGTKLEIK
notes: also called E10 scFv; not shown: Aga2, N-terminal, kept

- binding result [7]: binds
B3: yeast-displayed 602 scFv variant C5 (scFv, V domains shown)
VH: EVQLQESGPGLVAPSQSLSITCTVSGFSLTNYDISWIRQPPGKGLEWLGVIWTGGGTNYNSGFMSRLSITKDNSKSQVFLKMNSLQTDDTAIYYCVRQGRTPYWGQGTLVTVSA
VL: DIQVTQSPSSLSVSLGDRVTITCKASKDIYNRLAWYQQKPGNAPRLLISGATSLETGVPSRFSGSGSGKDYTLTITSLQTEDVATYYCQQTWGTPYTFGGGTKLEIK
notes: also called C5 scFv; not shown: Aga2, N-terminal, kept

- binding result [7]: binds
B4: yeast-displayed 602 scFv variant H2 (scFv, V domains shown)
VH: EVQLQESGPGLVAPSQSLSITCTVSGFSLTNYDISWIRQPPGKGLEWLGVIWTGGGTNYNSGFMSRLSITKDNSKSQVFLKMNSLQTDDTAIYYCVRQGRSPYWGQGTLVTVSA
VL: DIQVTQSPSSLSVSLGDRVTITCKASKDIHNRLAWYQQKPGNAPRLLISGATSLETGVPSRFSGSGSGKDYTLTITSLQTEDVATYYCQQVWGTPYTFGGGTKLEIK
notes: also called H2 scFv; not shown: Aga2, N-terminal, kept

- binding result [7]: binds
B5: yeast-displayed 602 scFv variant A8 (scFv, V domains shown)
VH: EVQLQESGPGLVAPSQSLSITCTVSGFSLTNYDISWIRQPPGKGLEWLGVIWTGGGTNYNSGFMSRLSITKDNSKSQVFLKMNSLQTDDTAIYYCVRQGRTPYWGQGTLVTVSA
VL: DIQVTQSPSSLSVSLGDRVTITCKASKDIYNRLAWYQQKPGNAPRLLISGATSLETGVPSRFSGSGSGKDYTLTITSLQTEDVATYYCQQFWDTPYSFGGGTKLEIK
notes: also called A8 scFv; not shown: Aga2, N-terminal, kept
